Laboratory results from paper PMC5574023.

Biological target: platelet receptor GPIIbIIIa (αIIbβ3) on human platelets, P08514;P05106
Experiment: platelet adhesion to immobilized protein (phosphatase assay)
Conditions: read off a plot

Row | Substance | response (Absorbance (405 nm)) (parent: est. 0.48) | response (Absorbance (405 nm)) (parent: est. 0.88) | response (Absorbance (405 nm)) (TRAP-activated gel-filtered platelets, 2 × 10^7 per well, 10 μg protein per well, 37°C, 45 min, static, parent: est. 0.88) | response (Absorbance (405 nm)) (non-activated gel-filtered platelets, 2 × 10^7 per well, 10 μg protein per well, 37°C, 45 min, static, parent: est. 0.48)
1 | recombinant PadA-F2 region fragment (from UniProt A8AZP4) G486A; D487A | 0.27 | 0.87 | – | –
2 | recombinant PadA-F2 region fragment (from UniProt A8AZP4) R416A; G417A; T418A | 0.21 | 0.8 | – | –
3 | recombinant PadA-F2 region fragment (from UniProt A8AZP4) R416A; G417A; T418A; G486A; D487A | 0.71 | 0.44 | – | –
4 | recombinant PadA-F2 region fragment (from UniProt A8AZP4) N214A; G215A; R216A | 0.28 | 0.72 | – | –
5 | recombinant PadA-F2 region fragment (from UniProt A8AZP4) N214A; G215A; R216A; R416A; G417A; T418A; G486A; D487A | – | – | 0.2 | 0.49
